Columns and labels:
UNK (called full-length) [1] = molecular target: T1, UNK (called full-length) (UniProt Q9C0B0 30-357); assay: fluorescence polarization; 50 nM unlabeled N16 RNA; FP: 5 nM RNA, 20 mM Hepes (pH not given), 5 mM DTT, 137.5 mM NaCl, 0.01% Triton X-100, 10 ng/ul BSA, 2 U/ml SUPERase-In; 15 min at 4 C, read at 25 C; positional
T1 sequence: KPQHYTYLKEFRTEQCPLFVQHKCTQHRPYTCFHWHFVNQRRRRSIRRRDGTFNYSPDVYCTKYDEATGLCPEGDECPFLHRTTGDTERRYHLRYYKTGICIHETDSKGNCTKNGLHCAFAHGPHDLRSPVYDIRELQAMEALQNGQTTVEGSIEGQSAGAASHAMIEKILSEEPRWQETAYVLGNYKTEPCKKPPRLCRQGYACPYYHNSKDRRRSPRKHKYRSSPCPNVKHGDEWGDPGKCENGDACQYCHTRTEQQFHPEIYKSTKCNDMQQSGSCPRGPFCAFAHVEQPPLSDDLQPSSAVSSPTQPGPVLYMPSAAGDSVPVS

UNK (called full-length) [2] = molecular target: T1, UNK (called full-length); assay: fluorescence polarization; FP: 5 nM RNA, 20 mM Hepes (pH not given), 5 mM DTT, 137.5 mM NaCl, 0.01% Triton X-100, 10 ng/ul BSA, 2 U/ml SUPERase-In; 15 min at 4 C, read at 25 C; positional
MSI1 full-length [3] = molecular target: T2, MSI1 full-length (mouse, UniProt Q61474 1-362); assay: as above
MSI1 swap = MSI1 swap (mouse, UniProt Q61474 1-19+109-191+104-108+20-103+192-362, internal_change); assay: as above
MSI2 full-length = MSI2 full-length (UniProt Q96DH6 1-328); assay: as above
MSI1 full-length [4] = molecular target: T2, MSI1 full-length; assay: as above; remark: listed apart in the source
UNK (called full-length) [5] = molecular target: T1, UNK (called full-length); assay: fluorescence polarization; 50 nM unlabeled N16 RNA; FP: 5 nM RNA, 20 mM Hepes (pH not given), 5 mM DTT, 137.5 mM NaCl, 0.01% Triton X-100, 10 ng/ul BSA, 2 U/ml SUPERase-In; 15 min at 4 C, read at 25 C; positional; remark: listed apart in the source

T2 sequence (Q61474 whole entry): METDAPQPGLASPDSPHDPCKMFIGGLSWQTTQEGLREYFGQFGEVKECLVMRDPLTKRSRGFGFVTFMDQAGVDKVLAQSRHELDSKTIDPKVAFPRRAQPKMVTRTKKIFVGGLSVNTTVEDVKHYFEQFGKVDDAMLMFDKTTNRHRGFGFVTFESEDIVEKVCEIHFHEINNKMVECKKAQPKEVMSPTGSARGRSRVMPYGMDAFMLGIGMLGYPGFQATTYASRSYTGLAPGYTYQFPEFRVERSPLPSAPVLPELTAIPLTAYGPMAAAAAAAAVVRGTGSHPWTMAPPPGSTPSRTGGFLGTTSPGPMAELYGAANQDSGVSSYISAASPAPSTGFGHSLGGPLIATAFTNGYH
Chain of MSI1 swap (Q61474 other isoform, or with tags, fused parts or gaps): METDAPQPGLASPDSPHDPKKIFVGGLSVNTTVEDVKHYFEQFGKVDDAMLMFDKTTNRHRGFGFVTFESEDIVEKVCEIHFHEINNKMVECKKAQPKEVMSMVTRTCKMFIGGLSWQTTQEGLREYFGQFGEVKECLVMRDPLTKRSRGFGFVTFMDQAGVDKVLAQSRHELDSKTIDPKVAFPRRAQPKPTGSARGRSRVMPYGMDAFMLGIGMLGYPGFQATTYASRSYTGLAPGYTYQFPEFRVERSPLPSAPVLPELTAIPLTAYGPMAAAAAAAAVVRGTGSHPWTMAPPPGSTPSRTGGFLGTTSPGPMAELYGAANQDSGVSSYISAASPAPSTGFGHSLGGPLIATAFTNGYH
Chain of MSI2 full-length (Q96DH6 whole entry): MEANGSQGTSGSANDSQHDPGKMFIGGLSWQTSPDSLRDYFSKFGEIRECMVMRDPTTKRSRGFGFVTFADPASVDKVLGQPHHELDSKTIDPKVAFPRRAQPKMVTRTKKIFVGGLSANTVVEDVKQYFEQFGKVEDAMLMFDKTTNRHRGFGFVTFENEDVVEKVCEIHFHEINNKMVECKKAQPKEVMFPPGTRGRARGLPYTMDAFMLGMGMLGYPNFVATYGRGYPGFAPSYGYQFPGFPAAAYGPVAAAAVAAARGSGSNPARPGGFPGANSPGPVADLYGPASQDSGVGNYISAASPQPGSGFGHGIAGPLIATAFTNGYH

CCCCCCAAUUAGAAAAAA (ssRNA) [CCC-UAG FP RNA]
binding signal (UNK (called full-length) [1]): ~2 fold tighter than mono-UAG

CCCCCCCCCCCCCCCC (ssRNA) [polyC FP RNA]
binding result (UNK (called full-length) [2]): no binding

CCCCCCAAUUAGUUAAUA (ssRNA) [CCC-UAG-AUA FP RNA]
binding signal (UNK (called full-length) [1]): ~1 fold vs UAG-AUA (little impact of upstream C)

UUAGUUAGUU (ssRNA) [dual-UAG FP RNA]
binding signal (MSI1 full-length [3]): ~10 fold tighter than mono-UAG
binding signal (MSI1 swap): ~1 fold vs MSI1 on dual-UAG (no observable Kd difference)

UAGUUUAGUUUAGUU (ssRNA) [tri-UAG FP RNA]
Kd (MSI2 full-length): 2 nM
Kd (MSI1 full-length [4]): 5 nM

AAAAAUUAGUUAAUA (ssRNA) [UAG-AUA FP RNA]
Kd (UNK (called full-length) [5]): 90 nM

UUUUUUUUUUUUUUUU (ssRNA) [polyU FP RNA]
binding result (UNK (called full-length) [2]): no binding

AAAAAAAAUUAGAAAAAA (ssRNA) [mono-UAG FP RNA]
Kd (MSI1 full-length [4]): 126 nM
binding signal (MSI1 swap): ~2 fold weaker than MSI1 on mono-UAG
Kd (UNK (called full-length) [5]): 400 nM

— paper PMC12136788
